Source: the Immune Epitope Database (IEDB)

Experiments:
HLA-B*44:03 = experiment: IEDB peptide-MHC binding, purified MHC/competitive/radioactivity; filed as Kd, often an IC50 or EC50 that approximates it; ≥ and ≤ were set here for values at or beyond the usual limits of such assays
HLA-B*40:01 = experiment: as above
HLA-B*44:02 = experiment: as above
HLA-B*40:02 = experiment: as above
HLA-B*45:01 = experiment: as above
HLA-B*18:01 [1] = experiment: as above
HLA-A*24:02 = experiment: IEDB peptide-MHC binding, purified MHC/competitive/fluorescence; ≥ and ≤ were set here for values at or beyond the usual limits of such assays
HLA-B*08:01 [2] = experiment: as above
HLA-B*15:01 [3] = experiment: as above
HLA-B*15:17 = experiment: IEDB peptide-MHC binding, purified MHC/competitive/fluorescence; filed as Kd, often an IC50 or EC50 that approximates it; ≥ and ≤ were set here for values at or beyond the usual limits of such assays; settings: source organism: Zaire ebolavirus
HLA-B*46:01 = experiment: as above; settings: source organism: Zaire ebolavirus
HLA-A*26:01 = experiment: as above; settings: source organism: Zaire ebolavirus
HLA-B*39:01 = experiment: as above; settings: source organism: Zaire ebolavirus
HLA-B*51:01 = experiment: as above; settings: source organism: Zaire ebolavirus
HLA-B*27:03 = experiment: as above; settings: source organism: Zaire ebolavirus
HLA-A*69:01 = experiment: as above; settings: source organism: Zaire ebolavirus
HLA-A*02:01 [4] = experiment: as above
HLA-B*18:01 [5] = experiment: as above; settings: source organism: Zaire ebolavirus
HLA-B*57:01 = experiment: as above; settings: source organism: Zaire ebolavirus
HLA-A*02:12 = experiment: IEDB peptide-MHC binding, purified MHC/direct/fluorescence; filed as Kd, often an IC50 or EC50 that approximates it; ≥ and ≤ were set here for values at or beyond the usual limits of such assays; settings: source organism: Zaire ebolavirus
HLA-A*03:01 = experiment: as above; settings: source organism: Zaire ebolavirus
HLA-A*02:03 [6] = experiment: as above; settings: source organism: Zaire ebolavirus
HLA-A*02:11 = experiment: as above; settings: source organism: Zaire ebolavirus
HLA-A*29:02 = experiment: as above; settings: source organism: Zaire ebolavirus
HLA-A*68:02 [7] = experiment: as above; settings: source organism: Zaire ebolavirus
HLA-A*02:19 = experiment: as above; settings: source organism: Zaire ebolavirus
HLA-B*15:01 [8] = experiment: as above; settings: source organism: Zaire ebolavirus
HLA-A*24:03 = experiment: as above; settings: source organism: Zaire ebolavirus
HLA-A*02:16 = experiment: as above; settings: source organism: Zaire ebolavirus
HLA-A*02:01 [9] = experiment: IEDB peptide-MHC binding, purified MHC/competitive/fluorescence; ≥ and ≤ were set here for values at or beyond the usual limits of such assays
HLA-A*02:17 = experiment: IEDB peptide-MHC binding, purified MHC/competitive/radioactivity; filed as Kd, often an IC50 or EC50 that approximates it; ≥ and ≤ were set here for values at or beyond the usual limits of such assays
HLA-A*02:03 [10] = experiment: as above
HLA-A*02:01 [11] = experiment: as above
HLA-B*08:01 [12] = experiment: as above; settings: source organism: Dengue virus 2 Jamaica/1409/1983
HLA-B*15:01 [13] = experiment: as above; settings: source organism: Dengue virus 2 Jamaica/1409/1983
HLA-A*02:06 [14] = experiment: as above
HLA-A*68:02 [15] = experiment: as above; settings: source organism: Dengue virus 4 Philippines/H241/1956
HLA-A*02:06 [16] = experiment: IEDB peptide-MHC binding, purified MHC/competitive/fluorescence; filed as Kd, often an IC50 or EC50 that approximates it; ≥ and ≤ were set here for values at or beyond the usual limits of such assays; settings: source organism: Vibrio vulnificus YJ016
HLA-C*14:02 = experiment: IEDB peptide-MHC binding, purified MHC/direct/fluorescence; filed as Kd, often an IC50 or EC50 that approximates it; ≥ and ≤ were set here for values at or beyond the usual limits of such assays; settings: source organism: Vibrio vulnificus YJ016
[17] = source organism: Mammarenavirus lassaense
[18] = source organism: SARS coronavirus Tor2
[19] = source organism: Zaire ebolavirus
[20] = source organism: Mammarenavirus whitewaterense
[21] = source organism: Dengue virus 2 Thailand/NGS-C/1944
[22] = source organism: Dengue virus 2 Jamaica/1409/1983
[23] = source organism: Dengue virus 4 Philippines/H241/1956
[24] = source organism: Mammarenavirus juninense
[25] = source organism: Lassa virus Josiah
[26] = source organism: Sudan ebolavirus
[27] = source organism: Mammarenavirus guanaritoense

Sequence FDAATTGSL has a Kd (HLA-B*44:03; [17]) of no less than 44.6 µM, a Kd (HLA-B*40:01; [17]) of 16.6 µM and a Kd (HLA-B*44:02; [17]) of no less than 22.2 µM. It also gave a Kd (HLA-B*40:02; [17]) of 2.29 µM, a Kd (HLA-B*45:01; [17]) of 14.4 µM and a Kd (HLA-B*18:01 [1]; [17]) of no less than 38.9 µM.

For HEGHQTAAF, the Kd (HLA-B*44:03; [18]) was 4.75 µM, the Kd (HLA-B*40:01; [18]) was 2.98 µM and the Kd (HLA-B*44:02; [18]) was 1.12 µM. The Kd (HLA-B*40:02; [18]) was 2.81 µM, the Kd (HLA-B*45:01; [18]) was no less than 26.2 µM and the Kd (HLA-B*18:01 [1]; [18]) was 4.27 µM.

For HQKKNEISF, the IC50 (HLA-A*24:02; [19]) was no less than 116 µM, the IC50 (HLA-B*08:01 [2]; [19]) was 42.2 µM and the IC50 (HLA-B*15:01 [3]; [19]) was 6.66 µM. The Kd (HLA-B*15:17) was no less than 20 µM, the Kd (HLA-B*46:01) was no less than 20 µM and the Kd (HLA-A*26:01) was no less than 20 µM. For the same sequence, the Kd (HLA-B*39:01) was no less than 20 µM, the Kd (HLA-B*51:01) was no less than 20 µM and the Kd (HLA-B*27:03) was no less than 20 µM. It also gave a Kd (HLA-A*69:01) of no less than 20 µM, a Kd (HLA-A*02:01 [4]; [19]) of no less than 20 µM and a Kd (HLA-B*18:01 [5]) of no less than 20 µM. For the same sequence, the Kd (HLA-B*57:01) was no less than 20 µM, the Kd (HLA-A*02:12) was no less than 20 µM and the Kd (HLA-A*03:01) was no less than 20 µM. The Kd (HLA-A*02:03 [6]) was no less than 20 µM, the Kd (HLA-A*02:11) was no less than 20 µM and the Kd (HLA-A*29:02) was no less than 20 µM. The Kd (HLA-A*68:02 [7]) was no less than 20 µM, the Kd (HLA-A*02:19) was no less than 20 µM and the Kd (HLA-B*15:01 [8]) was 0.233 µM. For the same sequence, the Kd (HLA-A*24:03) was no less than 20 µM and the Kd (HLA-A*02:16) was no less than 20 µM.

HSQGREAAV showed an IC50 (HLA-B*08:01 [2]; [19]) of no less than 172 µM and an IC50 (HLA-A*02:01 [9]; [19]) of no less than 254 µM.

For KEQYCALSPG, the Kd (HLA-B*44:03; [18]) was 3.46 µM, the Kd (HLA-B*40:01; [18]) was 4.67 µM and the Kd (HLA-B*44:02; [18]) was 2.61 µM. The Kd (HLA-B*40:02; [18]) was 0.831 µM, the Kd (HLA-B*45:01; [18]) was 0.259 µM and the Kd (HLA-B*18:01 [1]; [18]) was no less than 70.5 µM.

LEITDVTTL was tested, and the Kd (HLA-B*44:03; [20]) was 0.0618 µM, the Kd (HLA-B*40:01; [20]) was 0.127 µM and the Kd (HLA-B*44:02; [20]) was 0.0257 µM. For the same sequence, the Kd (HLA-B*40:02; [20]) was 0.0801 µM, the Kd (HLA-B*45:01; [20]) was no less than 77.7 µM and the Kd (HLA-B*18:01 [1]; [20]) was 0.462 µM.

Sequence LLVLCVTQV has a Kd (HLA-A*02:17; [21]) of no less than 5 µM, a Kd (HLA-A*02:03 [10]; source organism: Dengue virus 2 Peru/IQT2913/1996) of 0.0384 µM and a Kd (HLA-A*02:01 [11]; [21]) of 0.0649 µM.

In the case of LMMATIGIAL, the Kd (HLA-A*02:17; [22]) is reported as 0.171 µM, the Kd (HLA-A*02:03 [10]; [22]) is reported as 0.00892 µM and the Kd (HLA-B*08:01 [12]) is reported as 0.398 µM. For the same sequence, the Kd (HLA-B*15:01 [13]) was 0.0065 µM, the Kd (HLA-A*02:06 [14]; [22]) was 0.0136 µM and the Kd (HLA-A*02:01 [11]; [22]) was 0.0112 µM.

Work on MMKDEPVVF yielded an IC50 (HLA-A*24:02; [19]) of 0.218 µM, an IC50 (HLA-B*08:01 [2]; [19]) of no less than 205 µM and an IC50 (HLA-B*15:01 [3]; [19]) of 8.81 µM. For the same sequence, the IC50 (HLA-A*02:01 [9]; [19]) was no less than 116 µM.

Work on MVIGMAMTTV yielded a Kd (HLA-A*02:17; [23]) of 0.132 µM, a Kd (HLA-A*02:03 [10]; [23]) of 0.00014 µM and a Kd (HLA-A*68:02 [15]) of 0.00327 µM. The Kd (HLA-A*02:06 [14]; [23]) was 0.0053 µM and the Kd (HLA-A*02:01 [11]; [23]) was 0.00936 µM.

Work on NFLIKFLLI yielded an IC50 (HLA-A*24:02; [19]) of 0.0094 µM, an IC50 (HLA-B*08:01 [2]; [19]) of no less than 1610 µM and an IC50 (HLA-A*02:01 [9]; [19]) of no less than 614 µM.

With PDSCLNGKL the Kd (HLA-B*44:03; [24]) was no less than 78.1 µM, the Kd (HLA-B*40:01; [24]) was no less than 67.9 µM and the Kd (HLA-B*44:02; [24]) was no less than 77.9 µM. It also gave a Kd (HLA-B*40:02; [24]) of no less than 77.2 µM, a Kd (HLA-B*45:01; [24]) of no less than 25.6 µM and a Kd (HLA-B*18:01 [1]; [24]) of no less than 20.1 µM.

RQIQGIAAF showed a Kd (HLA-A*02:06 [16]) of 0.0133 µM, a Kd (HLA-A*02:01 [4]; source organism: Vibrio vulnificus YJ016) of 1.65 µM and a Kd (HLA-C*14:02) of 2.62 µM.

SEAREHLKNG was tested, and the Kd (HLA-B*44:03; [18]) was no less than 28.1 µM, the Kd (HLA-B*40:01; [18]) was no less than 39.3 µM and the Kd (HLA-B*44:02; [18]) was no less than 36.2 µM. For the same sequence, the Kd (HLA-B*40:02; [18]) was 6.59 µM, the Kd (HLA-B*45:01; [18]) was 8.32 µM and the Kd (HLA-B*18:01 [1]; [18]) was no less than 70.5 µM.

SEGKDTPGGY gave a Kd (HLA-B*44:03; [25]) of 1.75 µM, a Kd (HLA-B*40:01; [25]) of no less than 25.4 µM and a Kd (HLA-B*44:02; [25]) of 1.45 µM. It also gave a Kd (HLA-B*40:02; [25]) of no less than 70.8 µM, a Kd (HLA-B*45:01; [25]) of no less than 70 µM and a Kd (HLA-B*18:01 [1]; [25]) of no less than 59.6 µM.

TEIEPKLDG gave a Kd (HLA-B*44:03; [18]) of 13.4 µM, a Kd (HLA-B*40:01; [18]) of no less than 76.2 µM and a Kd (HLA-B*44:02; [18]) of 17.9 µM. For the same sequence, the Kd (HLA-B*40:02; [18]) was no less than 74.8 µM, the Kd (HLA-B*45:01; [18]) was no less than 28.6 µM and the Kd (HLA-B*18:01 [1]; [18]) was no less than 77.5 µM.

Work on TMTLWYMWQV yielded a Kd (HLA-A*02:17; [23]) of 0.433 µM, a Kd (HLA-A*02:06 [14]; [23]) of 0.0745 µM and a Kd (HLA-A*02:01 [11]; [23]) of 0.0288 µM.

For TVIYRGVNF, the IC50 (HLA-A*24:02; [26]) was 3.58 µM, the IC50 (HLA-B*08:01 [2]; [26]) was no less than 88 µM and the IC50 (HLA-B*15:01 [3]; [26]) was 28.3 µM. The IC50 (HLA-A*02:01 [9]; [26]) was no less than 790 µM.

Work on YEERLNEQLL yielded a Kd (HLA-B*44:03; [27]) of 14.6 µM, a Kd (HLA-B*40:01; [27]) of 2.48 µM and a Kd (HLA-B*44:02; [27]) of no less than 10 µM. The Kd (HLA-B*40:02; [27]) was 1.64 µM, the Kd (HLA-B*45:01; [27]) was no less than 70 µM and the Kd (HLA-B*18:01 [1]; [27]) was 5.99 µM.
